Tests used:
[1] = biological target: human lysosomal α-L-fucosidase (FucA1) (human) (UniProt P04066); assay: SEC-MALS; SEC-MALLS, Superdex S200 10/300, 20 mM HEPES pH 7.4, 200 mM NaCl, room temperature (20 ± 2°C), 100 μL injected at 0.8 mg/mL
[2] = biological target: human lysosomal α-L-fucosidase (FucA1) (human) (UniProt P04066); assay: cryo-EM structure; single-particle cryo-EM, 200 kV Glacios, D2 symmetry imposed; unliganded FucA1 at 2 mg/mL, and FucA1 at 1.5 mg/mL with 1 mM deoxyfuconojirimycin in 60 mM phosphate citrate pH 4.5

With “human lysosomal α-L-fucosidase (FucA1) (from UniProt P04066 32-466) (enzyme)” the stoichiometry N [1] was 4 and the stoichiometry N [2] was 4.
